# Patent publication US20220332804A1 (CSL INNOVATION, published 2022)
# Residue numbers refer to the chain shown, from its start.
# T1: human C2 L279A (human, UniProt P06681 21-752)
# T1 sequence: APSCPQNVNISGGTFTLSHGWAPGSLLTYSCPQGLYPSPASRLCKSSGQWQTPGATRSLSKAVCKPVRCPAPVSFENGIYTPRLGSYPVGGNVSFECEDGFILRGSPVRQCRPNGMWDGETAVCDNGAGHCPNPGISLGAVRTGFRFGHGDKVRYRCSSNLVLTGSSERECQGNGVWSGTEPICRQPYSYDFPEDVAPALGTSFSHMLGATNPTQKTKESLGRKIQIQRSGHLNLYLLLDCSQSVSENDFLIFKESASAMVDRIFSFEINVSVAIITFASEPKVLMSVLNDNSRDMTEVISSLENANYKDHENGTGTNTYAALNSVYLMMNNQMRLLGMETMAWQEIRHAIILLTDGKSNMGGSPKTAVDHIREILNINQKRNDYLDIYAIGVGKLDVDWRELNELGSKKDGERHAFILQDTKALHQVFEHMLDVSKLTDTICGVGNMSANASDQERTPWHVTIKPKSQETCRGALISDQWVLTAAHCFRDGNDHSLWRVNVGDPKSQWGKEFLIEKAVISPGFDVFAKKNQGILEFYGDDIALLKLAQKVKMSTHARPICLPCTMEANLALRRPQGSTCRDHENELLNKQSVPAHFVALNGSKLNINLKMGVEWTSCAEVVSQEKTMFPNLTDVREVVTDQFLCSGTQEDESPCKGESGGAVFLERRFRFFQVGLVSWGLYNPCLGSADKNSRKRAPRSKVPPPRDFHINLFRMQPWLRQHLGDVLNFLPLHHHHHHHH
# T2: human C2 G414A (human, UniProt P06681 21-752)
# T2 sequence: T1 sequence with A259L, G394A
# T3: human C2 E686A (human, UniProt P06681 21-752)
# T3 sequence: T1 sequence with A259L, E666A
# T4: human C2 V418A (human, UniProt P06681 21-752)
# T4 sequence: T1 sequence with A259L, V398A
# B1: RF16-242 (antibody, human IgG4 S228P, lambda, V domains shown)
# VH: EVQLLQSGAEVKKPGESLKISCKGSGYSFTSYWIGWVRQMPGKGLEWMGIIYPGDSDTRYSPSFQGQVTISADKSISTAYLQWSSLKASDTAMYYCARRGHYGDYFDYWGQGTLVTVSS
# VL: SYELTQPPSVSVSPGQTARITCSGDALPKKYAYWYHQKSGQAPVLVIYEDRRRPSEIPERFSGSSSGTMATLTITGAQVEDEGVYFCYSRDRAGNQRVFGGGTQLTVLG
# notes: pH-dependent anti-C2 antibody from a phage display library
# Key:
# Assay in all cases: SPR, KD relative to WT C2;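 note: biacore SPR at 37 °C, anti-C2 mAbs captured on anti-human IgG chips with alanine or serine point mutants of C2 as analyte, KD from 1:1 fit compared with wild-type C2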
# human C2 L279A = target: T1, human C2 L279A
# human C2 G414A = target: T2, human C2 G414A
# human C2 E686A = target: T3, human C2 E686A
# human C2 V418A = target: T4, human C2 V418A
binder,measurement,setting,value
B1,Fold diff,human C2 L279A,7 fold
same,Fold diff,human C2 G414A,1 fold
same,Fold diff,human C2 E686A,5 fold
same,Fold diff,human C2 V418A,1 fold
